Reference: patent US12331106B2, “Anti-angiopoietin-2 antibodies that induce Tie2 activation” (Institute for Basic Science, priority 2018, dated 2025)

What was measured:
[1] = tested on: choroidal neovascularization (CNV); experiment: Laser-induced CNV model, intravitreal injection: CNV regression and vascular leakage; format: in vivo, mice; settings: 5 μg intravitreal at 7 days
Protocol: 2C8H11 antibody was tested for its ability to inhibit choroidal neovascularization (CNV), the hallmark of wet age-related macular degeneration (AMD) using laser-induced CNV model. After dilation of pupils with 5 mg/ml phenylephrine and 5 mg/ml tropicamide eye drops (Santen Pharmaceutical) and instillation of 0.5% proparacaine hydrochloride eye drops (Alcon) for topical anesthesia, laser photocoagulator (Lumenis Inc.) with a slit lamp delivery system was used with a glass coverslip as a contact lens to visualize the retina. Sufficient laser energy (532 nm wavelength, 250 mW power, 100 ms duration, 50 μm spot size) was delivered in 4 locations for each eye (the 3, 6, 9 and 12 o'clock positions of the posterior pole). Only burns that produced a bubble at the time of laser photocoagulation, indicating the rupture of the Bruch's membrane, were included in this study. Spots containing hemorrhage at the laser site were excluded from the analysis. To recapitulate a clinical situation, 2C8H11 (5 μg) was administered intravitreally to the mice at 7 days after laser photocoagulation (FIG. 13A). As a control or as for comparison, Fc or VEGF-Trap (5 μg each) was administered in the same manner to the mice. To intravitreally administer indicated reagents, ˜1 μl (5 mg/ml) containing 5 μg of each reagent was injected into the vitreal cavity using the Nanoliter 2000 micro-injector (World Precision Instruments) fitted with a glass capillary pipette. CD31+CNV volumes of the retinal pigment epithelium (RPE)-choroid-sclera flat mounts were calculated using the MATLAB® Image Processing Toolbox™ (Math Works, a comprehensive set of reference-standard algorithms and workflow apps for image processing, analysis, visualization, and algorithm development) at 14 days after laser photocoagulation. Anti-CD31 antibody (1:200, Millipore®) was used for the detection of endothelial cells of CNV. […] Combined fluorescein angiography (FA) and indocyanine green angiography (ICGA) enabled us to measure vascular leakage at the neovessels around the laser injury site. Continuous-wave laser modules at 488 nm and 785 nm were used as excitation sources for fluorescein and ICG, respectively. A raster scanning pattern of excitation lasers was achieved by a scanner system consisting of a rotating polygonal mirror (MC-5; Lincoln Laser) and a galvanometer-based scanning mirror (6230H; Cambridge technology), and delivered to the back aperture of an imaging lens. A high numerical aperture (NA) objective lens (PlanApo λ, NA 0.75; Nikon) was used as the imaging lens to provide wide-field fundus fluorescence images. Fluorescence signals detected by photomultiplier tubes (R9110; Hamamatsu Photonics) were digitized by frame grabber and reconstructed to images with size of 512×512 pixels per frame in real time. To visualize late-phase (6 min) FA and ICGA images utilizing the angiography system, 10 mg of fluorescein sodium (Alcon) and 0.15 mg of ICG (Daiichi Pharmaceutical) were administered intraperitoneally and intravenously, respectively. The imaging procedure was performed under systemic anesthesia and pupil dilation to improve the quality of images. Leaky areas from CNV were calculated as the total measured hyperfluorescent areas in FA images divided by the total measured CNV areas in ICGA images using a Java-based imaging software (ImajeJ; National Institutes of Health). […] Thus, the magnitude of the suppression of CNV and vascular leakage was quantitatively indistinguishable between VEGF-Trap and 2C8H11 in the mouse model of laser-induced CNV.

[2] = tested on: Tie2 receptor clustering / FOXO1 translocation in HUVECs; experiment: Tie2 clustering and FOXO1 translocation in HUVECs (immunofluorescence); format: cell-based, human
Protocol: Tie2 clustering at cell-cell junction area and FOXO1 translocation from nucleus to cytosol by anti-Ang2 antibodies were examined in HUVECs by immunofluorescence. Specifically, HUVECs were seeded on 8 well slide chamber (Lab-Tek™ II) and maintained in EGM-2 medium for 2-3 days. At 100% confluence, the cells were serum starved with EBM-2 medium for 4 hrs and then treated with 1 μg/ml anti-Ang2 antibodies together with 1 μg/ml of hAng2 for 30 min. Thereafter, the cells were fixed with 4% formaldehyde in PBS at room temperature (RT) for 10 min, permeabilized with 0.1% TRITON™ X-100 (non-ionic polyoxyethylene surfactant) in PBS, blocked with 1% BSA in PBS at RT for 60 min, and incubated with primary antibodies at RT for 1 hr. The primary antibodies for hTie2, FOXO1, and Human Fc were used. The cells were then incubated with secondary antibodies (Invitrogen) in the dark at RT for 1 hr and mounted with VECTASHIELD® mounting medium with DAPI (Vector Labs, antifade mounting media optimized for immunofluorescence applications). Images were taken with a laser scanning confocal microscope (LSM880, Carl Zeiss).
2C8H11-induced Tie2 clustering and FOXO1 translocation was examined in a time-course study (from 10 min to 240 min). […] 6-4: Inhibition of Vascular Permeability by Humanized Anti-Ang2 Antibodies

[3] = tested on: HUVEC monolayer; experiment: In vitro vascular permeability (leakage) assay, TNF-α induced, FITC-dextran; format: cell-based, human; settings: HUVECs; pre-treatment antibody 1 μg/ml with Ang2 1 μg/ml 30 min; TNF-α 100 ng/ml 22 hr
Protocol: Vascular leakage assay was carried out in HUVECs using In Vitro Vascular Permeability Assay Kit (Millipore®) according to the manufacturer's instruction. HUVECs were seeded into the insert of the transwell plate and cultured for 3 days for 100% confluence. The HUVECs were pre-incubated with Ang2 (1 μg/ml), Ang2 (1 μg/ml) together with Control, 2C8H11 or 4B9H11 antibody (1 μg/ml) for 30 min, and then TNF-α (100 ng/ml) was added, and the cells were incubated at 37° C. for 22 hr. FITC-dextran was added to the upper chamber and incubated for 20 min. Passage of FITC-dextran though the HUVEC monolayer was measured by a fluorescence reader at excitation and emission wavelengths of 485 and 535 nm, respectively.

B1: 2C8H11: humanized anti-Ang2 human IgG1 antibody from mouse 2C8; VH SEQ ID NO: 55, VL SEQ ID NO: 56 (antibody, V domains shown)
VH: QVQLVQSGAEVKKPGASVKVSCKASGYTFTSYWMHWVRQAPGQGLEWMGMIDPSDSETRLNQKFKDRVTMTRDTSTSTVYMELSSLRSEDTAVYYCARRFYYGSDWYFDVWGQGTLVTVSS
VL: DIQLTQSPSFLSASVGDRVTITCKASQDVGTAVAWYQQKPGKAPKLLIYWASTRHTGVPSRFSGSGSGTEFTLTISSLQPEDFATYYCQQYSSYPLTFGQGTKVEIK
modifications: human IgG1 constant regions; VH; VL
- vascular leakage suppression compared with Fc ([1]; FA/ICGA, 14 days after laser photocoagulation): 38.3%
- CNV regression compared with Fc (CD31+ CNV volume) ([1]; measured 14 days after laser photocoagulation): 65.3%
- vascular leakage reduction between 6 and 14 days after laser photocoagulation ([1]; within-group): 50.0%
- co-localization of antibody with Tie2 receptor ([2]; HUVECs, 30 min, anti-human Fc staining): co-localized with clustered Tie2 receptor at cell-cell contact and endocytosed Tie2 receptor in cytosol
- Tie2 translocation/clustering to cell-cell contact ([2]; HUVECs, 30 min, antibodies 1 μg/ml with hAng2 1 μg/ml): induced Tie2 translocation/clustering to cell-cell contact
- FOXO1 translocation from nucleus to cytosol ([2]; HUVECs, 30 min, compared to serum-starved control): markedly disappeared in nucleus
- Tie2 receptor / Tie2 clustering at cell-cell contact at late time points ([2]; time-course, with hAng2, 120 min and 240 min): sustained even after 240 min treatment
- co-localized antibody with Tie2 at cell-cell contact ([2]; time-course, with hAng2, up to 240 min): maintained until 240 min
- vascular leakage induced by TNF-α (passage of FITC-dextran) [3]: significantly inhibited
